Experimental data taken from patent publication US20090324579A1 (UNIVERSITY OF WINDSOR, published 2009).

Target: T1, BSA (UniProt P02769 25-607)
T1 construct: also called control BSA antigen; control antigen
Experiment: phage ELISA

T1 sequence (P02769 25-607 limits assumed): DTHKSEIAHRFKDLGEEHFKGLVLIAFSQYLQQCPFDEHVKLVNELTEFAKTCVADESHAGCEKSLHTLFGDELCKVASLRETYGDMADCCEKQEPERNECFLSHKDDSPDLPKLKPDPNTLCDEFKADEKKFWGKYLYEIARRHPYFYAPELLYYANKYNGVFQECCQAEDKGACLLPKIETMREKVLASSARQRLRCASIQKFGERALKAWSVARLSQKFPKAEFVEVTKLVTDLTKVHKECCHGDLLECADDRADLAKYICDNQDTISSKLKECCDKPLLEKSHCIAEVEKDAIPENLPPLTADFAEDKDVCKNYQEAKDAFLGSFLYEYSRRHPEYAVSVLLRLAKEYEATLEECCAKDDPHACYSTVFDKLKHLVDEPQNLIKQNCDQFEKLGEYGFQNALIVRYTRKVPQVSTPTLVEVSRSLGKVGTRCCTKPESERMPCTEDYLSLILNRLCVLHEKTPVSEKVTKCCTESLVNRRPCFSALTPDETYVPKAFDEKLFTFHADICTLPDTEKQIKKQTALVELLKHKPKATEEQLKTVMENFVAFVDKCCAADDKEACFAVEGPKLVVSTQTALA

B1: Casp2 VHH displayed on phage (VHH)
VHH: DVQLQASGGGLVQAGGSLRLSCAASTNIFRDKFMAWYRQAPGKQRELVASITTGGRTDYADSVKGRFTISRDNTKDTMYLQMNSLKPEDTAVYYCAGFLGRTYWGQGTQVTVSS
notes: also called Casp2 sdAb
B1: no binding.

B2: Casp1 VHH displayed on phage (VHH)
VHH: DVQLQASGGGLVQPGGSLRLSCAASGSLSRITVMGWYRQAPGKQRELVAIITSSGGTNYADSVKGRFTISRDNAKNTVYLQMNSLKPEDTAVYYCLAARGYDRYWGRGTQVTVSS
notes: also called Casp1 sdAb
B2: no binding.
